Reference: US20130078718A1, “CONVERSION OF VASCULAR ENDOTHELIAL CELLS INTO MULTIPOTENT STEM-LIKE CELLS” (PRESIDENT AND FELLOWS OF HARVARD COLLEGE, priority 2010, published 2013)

How the values were obtained:
ALK2 with ALK5 = biological target: T1, ALK2 with ALK5 (Homo sapiens, UniProt Q04771); assay: Interaction of ALK2 with ALK5: immunoprecipitation of ALK2, immunoblotting for ALK5; type: cell-based; conditions: 10 ng ml−1, 15 min
T1 construct: endogenous in cells; host or cells: HUVEC
T1 sequence (Q04771 21-509): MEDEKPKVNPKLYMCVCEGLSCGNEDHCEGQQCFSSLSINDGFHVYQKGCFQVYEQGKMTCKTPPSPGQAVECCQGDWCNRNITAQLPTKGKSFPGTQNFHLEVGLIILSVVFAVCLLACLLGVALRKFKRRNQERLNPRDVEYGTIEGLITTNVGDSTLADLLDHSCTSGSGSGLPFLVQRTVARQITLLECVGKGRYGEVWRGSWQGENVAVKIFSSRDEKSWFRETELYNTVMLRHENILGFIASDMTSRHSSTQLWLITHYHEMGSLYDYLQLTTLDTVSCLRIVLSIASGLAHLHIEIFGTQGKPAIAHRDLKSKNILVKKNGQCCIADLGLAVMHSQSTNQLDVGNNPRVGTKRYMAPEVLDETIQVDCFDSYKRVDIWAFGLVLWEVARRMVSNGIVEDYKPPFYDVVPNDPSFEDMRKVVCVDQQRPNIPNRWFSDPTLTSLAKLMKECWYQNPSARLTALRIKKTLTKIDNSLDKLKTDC
Procedure: Human umbilical vein endothelial cells (HUVEC) and human cutaneous microvascular endothelial cells (HCMEC) isolated as previously described (35). Cells were tested for purity and found to express no markers for lymphatic endothelial cells or stromal cells (pericytes, smooth muscle cells, etc.) (36). This was reconfirmed by flow cytometry analysis (data not shown). Clonal populations were isolated with PYREX 8×8 mm cloning cylinders (Corning) and shown to respond in a manner identical to that of the cultures used for our experiments (FIG. 25B-D). Cells were grown in culture using EGM-2 medium (Cambrex), containing 10% FBS and 1% Penicillin/Streptomycin, followed by human endothelial serum free medium (Gibco) 24 h prior to all experimental conditions. Bone marrow derived mesenchymal stem cells (ScienCell Research Laboratories) were grown in mesenchymal stem cell medium (ScienCell Research Laboratories). Bone marrow derived hematopoietic stem cells (Lonza) were grown in HPGM medium (Lonza). Human corneal fibroblasts, from a stock provided by Dr. Elizabeth Hay (Harvard Medical School), were grown in RPMI medium, containing 10% FBS and 1% Penicillin/Streptomycin. Primary human osteoblasts, chondrocytes, and adipocytes and their respective growth media were obtained from Cell Applications, Inc. […] Recombinant VEGF (R&D Systems) was added to cultures at a concentration of 25 ng ml^-1. Dorsomorphin (Sigma-Aldrich) was added to cultures at a concentration of 5 μM. All experiments for this study were performed at minimum in triplicate. Immunoassays were performed using the following antibodies at concentrations (and using protocols) recommended by the respective manufacturers: […] Stressgen), phospho-Smad2 (3101), Smad2 (3122), phospho-Smad5 (9516), Smad5 (9517; […] Santa Cruz Biotechnology), osterix (ab22552), adiponectin (ab22554), N-cadherin (ab76057), NG2 (ab83508), vWF (ab68545; Abcam); CD31 (IR610; Dako), […]; GenScript); α-SMA ([…]), β-actin (A1978; Sigma-Aldrich). […] Images were acquired using a Nikon 80i fluorescence microscope.

ALK2 = biological target: T2, ALK2 (Homo sapiens, UniProt Q04771); assay: ALK2 phosphorylation: immunoprecipitation with ALK2 antibodies, phospho-tyrosine immunoblotting; type: cell-based; conditions: 10 ng/mL, 15 minutes
T2 construct: Phosphorylation of this receptor was therefore examined in cell lysates; endogenous in cells; host or cells: primary HUVEC and HCMEC
T2 sequence (Q04771 21-509): T1 sequence (Q04771 21-509)
Procedure: Human umbilical vein endothelial cells (HUVEC) and human cutaneous microvascular endothelial cells (HCMEC) were provided by J. Bischoff (Children's Hospital Boston) and isolated as previously described^35. […] Cells were grown in culture using EGM-2 medium (Cambrex), containing 10% FBS and 1% Penicillin/Streptomycin, followed by human endothelial serum free medium (Gibco) 24 hours prior to all experimental conditions. Bone marrow derived mesenchymal stem cells (ScienCell Research Laboratories) were grown in mesenchymal stem cell medium (ScienCell Research Laboratories). Human corneal fibroblasts, from a stock initially provided by E. Hay (Harvard Medical School), were grown in RPMI medium, containing 10% FBS and 1% Penicillin/Streptomycin. […]
Immunoassays were performed using the following antibodies at concentrations (and using protocols) recommended by the respective manufacturers: FSP-1 (H00006275-M01; Stressgen), ALK2 (sc-5671), Phospho-tyrosine (sc-7020), VE-cadherin (sc-6458), TIE2 (sc-324, sc-9026), STRO-1 (sc-47733), CD44 (sc-71220), CD90 (sc-9163), Osteocalcin (sc-74495, sc-23790), SOX9 (sc-20095), COL2A1 (sc-59958, sc-52658), PPARγ2 (sc-22022; Santa Cruz Biotechnology), vWF (ab68545; Abcam); His (A00174; GenScript); α-SMA (A5228), β-actin (A1978; Sigma-Aldrich). […] Images were acquired using a Nikon 80i fluorescence microscope. […]

ALK5 in ALK2 immunoprecipitates (ALK2 with ALK5) | ALK2 receptor phosphorylation (phospho-tyrosine) (ALK2) | Substance
presence of ALK5 | induced receptor phosphorylation | TGF-β2: Recombinant TGF-β2 protein (R&D Systems), ALK2 activating ligand, used at 10 ng/mL
presence of ALK5 | induced receptor phosphorylation | BMP4: Recombinant BMP4 protein (R&D Systems), ALK2 activating ligand, used at 10 ng/mL
